This note sets out measurements from publication PMC314469, “Protein Interaction Networks by Proteome Peptide Scanning” (PLoS Biology, 2004).

The target of one assay is T1, amphyphisin SH3 (AMPH_HUMAN), P49418.
T1 chain: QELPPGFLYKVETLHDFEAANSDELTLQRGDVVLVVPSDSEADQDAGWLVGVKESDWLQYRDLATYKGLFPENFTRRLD
Description: SPOT array.
GPPPPPRPPFGRPP [O14776 57-71]: the normalised SPOT signal, Boehringer light units (BLU); mean over the file's lines of this peptide turned out to be 1370.

GSEKPKRPVSAMFI [P17480 403-416] returned a normalised SPOT signal, Boehringer light units (BLU); mean over the file's lines of this peptide of 39.3.

On to GREAPGRPPRAVPK [Q9ULI4 1050-1063], for which the normalised SPOT signal, Boehringer light units (BLU); mean over the file's lines of this peptide stood at 2140.

For the molecule GPQRPRRPAKDAQP [Q12984 78-91], the normalised SPOT signal, Boehringer light units (BLU); mean over the file's lines of this peptide amounted to 8400.

As for GSGKPSRPSKPIVA [Q15598 1240-1253], the normalised SPOT signal, Boehringer light units (BLU); mean over the file's lines of this peptide worked out at 125.

Turning to GSGSPVRPPVSTWG [Q9NUB4 27-41], the normalised SPOT signal, Boehringer light units (BLU); mean over the file's lines of this peptide turned out to be 32.2.

Regarding GQDKPVKPPTKKSE [P20810 625-639], the normalised SPOT signal, Boehringer light units (BLU); mean over the file's lines of this peptide came to 48.2.

GPRPPPRPARHRSH [Q9P0U7 35-48]: the normalised SPOT signal, Boehringer light units (BLU); mean over the file's lines of this peptide came to 13100.

Turning to GSQAPARPPKPRPR [Q13191 898-911], the normalised SPOT signal, Boehringer light units (BLU); mean over the file's lines of this peptide amounted to 423.

GPSPPYRPEKLSSP [Q13495 380-393] yielded a normalised SPOT signal, Boehringer light units (BLU); mean over the file's lines of this peptide of 243.

GRSALRRPWRKSGS [Q9BR44 22-35] showed a normalised SPOT signal, Boehringer light units (BLU); mean over the file's lines of this peptide of 531.

As for GSPAPKRPPDPFPG [O43593 424-437], the normalised SPOT signal, Boehringer light units (BLU); mean over the file's lines of this peptide was 51.3.

In turn, GPSSPQKPPTPEET [P18887 443-457] came in with a normalised SPOT signal, Boehringer light units (BLU); mean over the file's lines of this peptide of 43.4.

GQQLPPRPPQSSSV [O15027 229-243] yielded a normalised SPOT signal, Boehringer light units (BLU); mean over the file's lines of this peptide of 66.4.

For GQKQPKRPRSESSS [O00467 395-408], the normalised SPOT signal, Boehringer light units (BLU); mean over the file's lines of this peptide was found to be 51.5.

Molecule ALLVPVKPPTAWEG [Q8TCB4 82-96] came in with a normalised SPOT signal, Boehringer light units (BLU); mean over the file's lines of this peptide of 2.4.

GQLQPSRPTRARGT [Q14163 165-178] came in with a normalised SPOT signal, Boehringer light units (BLU); mean over the file's lines of this peptide of 4840.

GQKLPRRPQPGPGE [Q9H8D9 660-673] gave a normalised SPOT signal, Boehringer light units (BLU); mean over the file's lines of this peptide of 14.9.

For GQVILRRPLDYEKN [Q9NPG4 302-315], the normalised SPOT signal, Boehringer light units (BLU); mean over the file's lines of this peptide is 19.8.

Turning to GPYGPHRPPQPLPP [Q99687 39-53], the normalised SPOT signal, Boehringer light units (BLU); mean over the file's lines of this peptide is 54.3.

For the molecule GPLGLRRPPSASSD [Q01167 591-604], the normalised SPOT signal, Boehringer light units (BLU); mean over the file's lines of this peptide turned out to be 11.4.

GSALPRRPLLSIPA [Q01974 4-17] came in with a normalised SPOT signal, Boehringer light units (BLU); mean over the file's lines of this peptide of 36.4.

As for GRNDLKRPMQAPPG [Q9HD26 258-271], the normalised SPOT signal, Boehringer light units (BLU); mean over the file's lines of this peptide came out at 32.8.

ALLEPRRPPHDYMP [Q99946 106-119] returned a normalised SPOT signal, Boehringer light units (BLU); mean over the file's lines of this peptide of 33.

GPPSPRRPLVPAGP [O00268 106-119] returned a normalised SPOT signal, Boehringer light units (BLU); mean over the file's lines of this peptide of 20.9.

GSEPPRRPPPAPHD [P48634 1687-1701] registered a normalised SPOT signal, Boehringer light units (BLU); mean over the file's lines of this peptide of 372.

Molecule GPLDLRRPMRTVPG [Q96SD2 167-180] came in with a normalised SPOT signal, Boehringer light units (BLU); mean over the file's lines of this peptide of 1070.

As to GSESLSRPWRARAK [O94851 799-812], the normalised SPOT signal, Boehringer light units (BLU); mean over the file's lines of this peptide worked out at 248.

ALLDPRRPEIPTEQ [Q9NUC1 730-743] showed a normalised SPOT signal, Boehringer light units (BLU); mean over the file's lines of this peptide of 26.1.

Consider GRPRPRRPAQYPAR [Q9BTV6 2-15], for which the normalised SPOT signal, Boehringer light units (BLU); mean over the file's lines of this peptide is 73.1.

For the molecule GSELPRRPLPPAAQ [P04818 4-17], the normalised SPOT signal, Boehringer light units (BLU); mean over the file's lines of this peptide was 40.1.

In turn, ALLTPHRPGRALSF [Q9NZK9 120-133] had a normalised SPOT signal, Boehringer light units (BLU); mean over the file's lines of this peptide of 5440.

As to GSPEPKRPGVSEAA [Q9UN79 64-77], the normalised SPOT signal, Boehringer light units (BLU); mean over the file's lines of this peptide was 26.6.

In turn, GQRRLRRPLILGLG [O75761 132-145] displayed a normalised SPOT signal, Boehringer light units (BLU); mean over the file's lines of this peptide of 42.9.

For GQSAPRRPSAGDGA [Q9P2C5 54-67], the normalised SPOT signal, Boehringer light units (BLU); mean over the file's lines of this peptide is 23.6.

In the case of GRDFLQRPGRQPQA [O75016 262-275], the normalised SPOT signal, Boehringer light units (BLU); mean over the file's lines of this peptide stood at 211.

The molecule GRAWLRRPHPRDVG [Q9H4N7 178-191] returned a normalised SPOT signal, Boehringer light units (BLU); mean over the file's lines of this peptide of 2.1.

In turn, GRTPPARPPQDPAE [BAC05028 186-200] gave a normalised SPOT signal, Boehringer light units (BLU); mean over the file's lines of this peptide of 69.

A further assay addresses endophilin SH3 (SH3G2_HUMAN), Q99962. Description: SPOT array.
GPPPPPRPPFGRPP [O14776 57-71] showed a normalised SPOT signal, Boehringer light units (BLU); mean over the file's lines of this peptide of 5310.

The molecule GSEKPKRPVSAMFI [P17480 403-416] gave a normalised SPOT signal, Boehringer light units (BLU); mean over the file's lines of this peptide of 2530.

As for GREAPGRPPRAVPK [Q9ULI4 1050-1063], the normalised SPOT signal, Boehringer light units (BLU); mean over the file's lines of this peptide came out at 19300.

For GPQRPRRPAKDAQP [Q12984 78-91], the normalised SPOT signal, Boehringer light units (BLU); mean over the file's lines of this peptide worked out at 10700.

Regarding GSGKPSRPSKPIVA [Q15598 1240-1253], the normalised SPOT signal, Boehringer light units (BLU); mean over the file's lines of this peptide amounted to 1350.

Molecule GSGSPVRPPVSTWG [Q9NUB4 27-41] registered a normalised SPOT signal, Boehringer light units (BLU); mean over the file's lines of this peptide of 16.6.

GQDKPVKPPTKKSE [P20810 625-639] gave a normalised SPOT signal, Boehringer light units (BLU); mean over the file's lines of this peptide of 232.

GPRPPPRPARHRSH [Q9P0U7 35-48]: the normalised SPOT signal, Boehringer light units (BLU); mean over the file's lines of this peptide came to 28600.

In turn, GSQAPARPPKPRPR [Q13191 898-911] had a normalised SPOT signal, Boehringer light units (BLU); mean over the file's lines of this peptide of 62500.

As for GPSPPYRPEKLSSP [Q13495 380-393], the normalised SPOT signal, Boehringer light units (BLU); mean over the file's lines of this peptide came out at 684.

For GRSALRRPWRKSGS [Q9BR44 22-35], the normalised SPOT signal, Boehringer light units (BLU); mean over the file's lines of this peptide came out at 160.

On to GSPAPKRPPDPFPG [O43593 424-437], for which the normalised SPOT signal, Boehringer light units (BLU); mean over the file's lines of this peptide was 706.

GPSSPQKPPTPEET [P18887 443-457] gave a normalised SPOT signal, Boehringer light units (BLU); mean over the file's lines of this peptide of 57.4.

In turn, GQQLPPRPPQSSSV [O15027 229-243] gave a normalised SPOT signal, Boehringer light units (BLU); mean over the file's lines of this peptide of 486.

Molecule GQKQPKRPRSESSS [O00467 395-408] showed a normalised SPOT signal, Boehringer light units (BLU); mean over the file's lines of this peptide of 43.7.

Turning to ALLVPVKPPTAWEG [Q8TCB4 82-96], the normalised SPOT signal, Boehringer light units (BLU); mean over the file's lines of this peptide turned out to be 55.1.

GQLQPSRPTRARGT [Q14163 165-178] gave a normalised SPOT signal, Boehringer light units (BLU); mean over the file's lines of this peptide of 111.

In the case of GQKLPRRPQPGPGE [Q9H8D9 660-673], the normalised SPOT signal, Boehringer light units (BLU); mean over the file's lines of this peptide is 43.

Turning to GQVILRRPLDYEKN [Q9NPG4 302-315], the normalised SPOT signal, Boehringer light units (BLU); mean over the file's lines of this peptide was 20.9.

GPYGPHRPPQPLPP [Q99687 39-53] gave a normalised SPOT signal, Boehringer light units (BLU); mean over the file's lines of this peptide of 212.

Consider GPLGLRRPPSASSD [Q01167 591-604], for which the normalised SPOT signal, Boehringer light units (BLU); mean over the file's lines of this peptide amounted to 116.

As to GSALPRRPLLSIPA [Q01974 4-17], the normalised SPOT signal, Boehringer light units (BLU); mean over the file's lines of this peptide was 2140.

With GRNDLKRPMQAPPG [Q9HD26 258-271], the normalised SPOT signal, Boehringer light units (BLU); mean over the file's lines of this peptide was found to be 39.5.

ALLEPRRPPHDYMP [Q99946 106-119] came in with a normalised SPOT signal, Boehringer light units (BLU); mean over the file's lines of this peptide of 55.2.

In the case of GPPSPRRPLVPAGP [O00268 106-119], the normalised SPOT signal, Boehringer light units (BLU); mean over the file's lines of this peptide came to 2840.

Consider GSEPPRRPPPAPHD [P48634 1687-1701], for which the normalised SPOT signal, Boehringer light units (BLU); mean over the file's lines of this peptide is 2350.

In the case of GPLDLRRPMRTVPG [Q96SD2 167-180], the normalised SPOT signal, Boehringer light units (BLU); mean over the file's lines of this peptide was found to be 972.

GSESLSRPWRARAK [O94851 799-812] returned a normalised SPOT signal, Boehringer light units (BLU); mean over the file's lines of this peptide of 91.7.

The molecule ALLDPRRPEIPTEQ [Q9NUC1 730-743] registered a normalised SPOT signal, Boehringer light units (BLU); mean over the file's lines of this peptide of 36.9.

In the case of GRPRPRRPAQYPAR [Q9BTV6 2-15], the normalised SPOT signal, Boehringer light units (BLU); mean over the file's lines of this peptide is 649.

As to GSELPRRPLPPAAQ [P04818 4-17], the normalised SPOT signal, Boehringer light units (BLU); mean over the file's lines of this peptide turned out to be 70.6.

With ALLTPHRPGRALSF [Q9NZK9 120-133], the normalised SPOT signal, Boehringer light units (BLU); mean over the file's lines of this peptide is 491.

For GSPEPKRPGVSEAA [Q9UN79 64-77], the normalised SPOT signal, Boehringer light units (BLU); mean over the file's lines of this peptide turned out to be 17.9.

For GQRRLRRPLILGLG [O75761 132-145], the normalised SPOT signal, Boehringer light units (BLU); mean over the file's lines of this peptide was determined as 93.3.

With GQSAPRRPSAGDGA [Q9P2C5 54-67], the normalised SPOT signal, Boehringer light units (BLU); mean over the file's lines of this peptide was 142.

GRDFLQRPGRQPQA [O75016 262-275] returned a normalised SPOT signal, Boehringer light units (BLU); mean over the file's lines of this peptide of 135.

For the molecule GRAWLRRPHPRDVG [Q9H4N7 178-191], the normalised SPOT signal, Boehringer light units (BLU); mean over the file's lines of this peptide was 55.2.

GRTPPARPPQDPAE [BAC05028 186-200]: the normalised SPOT signal, Boehringer light units (BLU); mean over the file's lines of this peptide was 129.
